Experimental data from patent US20230405133A1, “PURIFIED MULTIVALENT PROTEIN-HYALURONIC ACID POLYMER CONJUGATES” (Valitor, Inc., priority 2022, published 2023).
One block for each binder: values may come before it.

What was measured:
[1] = biological target: T1, Human VEGF 165 (human, UniProt P15692-4 27-191); assay: BLI, VEGF 165 on probe; sample aged 11 days at 37 °C; limit of detection; aged 11 days at 37 C (sample 1)
T1 construct: Loaded on the BLI probe as the ligand; also called BLI ligand Human VEGF 165 (Avi tag, R&D Systems AVI-293-050); not shown: Avi tag

[2] = biological target: T1, Human VEGF 165; assay: BLI, VEGF 165 on probe, conjugate as analyte, t = 0; value is the limit of detection
[3] = biological target: T1, Human VEGF 165; assay: BLI; KD after 32 days at 37 °C against KD at t = 0
[4] = biological target: T1, Human VEGF 165; assay: BLI; KD after 11 days at 37 °C against KD at t = 0
[5] = biological target: T1, Human VEGF 165; assay: BLI, VEGF 165 on probe, t = 0 (repeats Table 15); limit of detection; t = 0, fresh conjugate, not aged
[6] = biological target: T1, Human VEGF 165; assay: BLI, VEGF 165 on probe; sample aged 32 days at 37 °C
[7] = biological target: T1, Human VEGF 165; assay: BLI, VEGF 165 on probe, t = 0 (repeats Table 15); limit of detection
[8] = biological target: T1, Human VEGF 165; assay: BLI; KD after 14 days at 37 °C against KD at t = 0
[9] = biological target: T1, Human VEGF 165; assay: BLI; KD after 28 days at 37 °C against KD at t = 0
[10] = biological target: T1, Human VEGF 165; assay: BLI, VEGF 165 on probe; sample aged 14 days at 37 °C; limit of detection
[11] = biological target: T1, Human VEGF 165; assay: BLI, VEGF 165 on probe; sample aged 28 days at 37 °C
[12] = biological target: T1, Human VEGF 165; assay: BLI, VEGF 165 on probe, conjugate as analyte, t = 0; value is the limit of detection; t = 0, fresh conjugate, not aged
[13] = biological target: T1, Human VEGF 165; assay: BLI, VEGF 165 on probe; sample aged 4 days at 37 °C
[14] = biological target: T1, Human VEGF 165; assay: BLI, VEGF 165 on probe; sample aged 14 days at 37 °C
[15] = biological target: T1, Human VEGF 165; assay: BLI; KD after 4 days at 37 °C against KD at t = 0
[16] = biological target: T1, Human VEGF 165; assay: BLI, VEGF 165 on probe, conjugate as analyte, t = 0
[17] = biological target: T1, Human VEGF 165; assay: BLI, VEGF 165 on probe, t = 0 (repeats Table 15)
[18] = biological target: T1, Human VEGF 165; assay: BLI, VEGF 165 on probe, conjugate as analyte, t = 0; t = 0, fresh conjugate, not aged
[19] = biological target: T1, Human VEGF 165; assay: BLI, VEGF 165 on probe; sample aged 4 days at 37 °C; limit of detection

T1 sequence (P15692 other isoform, or with tags, fused parts or gaps limits assumed): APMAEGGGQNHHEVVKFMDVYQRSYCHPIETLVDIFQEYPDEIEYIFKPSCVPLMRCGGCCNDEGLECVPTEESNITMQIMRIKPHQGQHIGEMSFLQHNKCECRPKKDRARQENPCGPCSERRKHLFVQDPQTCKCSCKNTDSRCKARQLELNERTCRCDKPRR

B1: Conjugate 1 (anti-VEGF DARPin SEQ ID NO: 92 on hyaluronic acid, intermediate 5-4) (designed binder)
chain: GSDLDKKLLEAARAGQDDEVRILMANGADVNARDSTGWTPLHLAAPWGHPEIVEVLLKNGADVNAADFQGWTPLHLAAAVGHLEIVEVLLKYGADVNAQDKFGKTAFDISIDNGNEDLAEILQKAAGGGSGGGS
modifications: peptide bound through the organic linker MP2H to hyaluronic acid (830 kDa); site of attachment not stated
notes: Multivalent peptide-hyaluronic acid conjugate (MVP); peptide valency 68; Method 5 intermediate (high EDC, N-acylurea adducts); also called DARPin MVP (Method 5)
Kd [1]: < 0.001 nM
Kd [2]: < 0.001 nM
Change in KD to t = 0 [3]: 75 fold
Change in KD to t = 0 [4]: 1 fold
Kd [5]: < 0.001 nM
Kd [6]: 0.075 nM

B2: Conjugate 2 (anti-VEGF DARPin SEQ ID NO: 92 on hyaluronic acid, intermediate 1-7) (designed binder)
chain: B1 chain
modifications: peptide bound through the organic linker MP2H to hyaluronic acid (830 kDa); site of attachment not stated
notes: Multivalent peptide-hyaluronic acid conjugate (MVP); peptide valency 117; Method 1 intermediate; also called DARPin MVP (Method 1)
Kd [7]: < 0.001 nM
Kd [2]: < 0.001 nM
Change in KD to t = 0 [8]: 1 fold
Change in KD to t = 0 [9]: 17 fold
Kd [10]: < 0.001 nM
Kd [11]: 0.017 nM

B3: Conjugate 3 (anti-VEGF DARPin SEQ ID NO: 92 on hyaluronic acid, intermediate 5-5) (designed binder)
chain: B1 chain
modifications: peptide bound through the organic linker MP2H to hyaluronic acid (830 kDa); site of attachment not stated
notes: Multivalent peptide-hyaluronic acid conjugate (MVP); peptide valency 67; Method 5 intermediate; also called DARPin MVP (Method 5)
Kd [2]: < 0.001 nM

B7: Conjugate 14 (anti-VEGF VHH SEQ ID NO: 91 with Rigid linker SEQ ID NO: 31 on hyaluronic acid, intermediate 5-3) (VHH)
VHH: DVQLVESGGGLVQPGGSLRLSCAASGRTFSSYSMGWFRQAPGKEREFVVAISKGGYKYDAVSLEGRFTISRDNAKNTVYLQINSLRPEDTAVYYCASSRAYGSSRLRLADTYEYWGQGTLVTVSS
modifications: C-terminal Cys of the peptide linker bound by its thiol to the maleimide of the organic linker MP2H on hyaluronic acid (830 kDa)
notes: Multivalent peptide-hyaluronic acid conjugate (MVP); peptide valency 68; Method 5 intermediate; also called BI VHH anti-VEGF MVP
Kd [18]: 0.203 nM

B8: Conjugate 13 (anti-VEGF VHH SEQ ID NO: 91 with Rigid linker SEQ ID NO: 31 on hyaluronic acid, intermediate 5-8) (VHH)
VHH: B7 VHH
modifications: C-terminal Cys of the peptide linker bound by its thiol to the maleimide of the organic linker MP2H on hyaluronic acid (830 kDa)
notes: Multivalent peptide-hyaluronic acid conjugate (MVP); peptide valency 72; Method 5 intermediate; also called BI VHH anti-VEGF MVP
Kd [16]: 0.011 nM

Now from value to binder:

Kd [12]: < 0.001 nM
B4: Conjugate 15 (anti-VEGF VHH SEQ ID NO: 91 with aH linker SEQ ID NO: 21 on hyaluronic acid, intermediate 5-10) (VHH)
VHH: B7 VHH
modifications: C-terminal Cys of the peptide linker bound by its thiol to the maleimide of the organic linker EMCH on hyaluronic acid (830 kDa)
notes: Multivalent peptide-hyaluronic acid conjugate (MVP); peptide valency 59; Method 5 intermediate 5-10, made with EMCH instead of MP2H; also called BI VHH anti-VEGF MVP

Kd [7]: < 0.001 nM
Kd [2]: < 0.001 nM
Change in KD to t = 0 [8]: 1950 fold
Kd [13]: 6.96 nM
Kd [14]: 1.95 nM
Change in KD to t = 0 [15]: 6960 fold
B5: Conjugate 23 (anti-VEGF VHH SEQ ID NO: 91 with aH linker SEQ ID NO: 21 on hyaluronic acid, intermediate 1-11) (VHH)
VHH: B7 VHH
modifications: C-terminal Cys of the peptide linker bound by its thiol to the maleimide of the organic linker MP2H on hyaluronic acid (830 kDa)
notes: Multivalent peptide-hyaluronic acid conjugate (MVP); peptide valency 33; Method 1 intermediate; also called BI VHH anti-VEGF MVP

Change in KD to t = 0 [8]: 228 fold
Kd [13]: 0.713 nM
Kd [16]: 0.004 nM
Kd [14]: 0.911 nM
Change in KD to t = 0 [15]: 178 fold
Kd [17]: 0.004 nM
B6: Conjugate 17 (anti-VEGF VHH SEQ ID NO: 91 on hyaluronic acid, intermediate 1-7) (VHH)
VHH: B7 VHH
modifications: peptide bound through the organic linker MP2H to hyaluronic acid (830 kDa); site of attachment not stated
notes: Multivalent peptide-hyaluronic acid conjugate (MVP); peptide valency 90; Method 1 intermediate; also called BI VHH anti-VEGF MVP

Kd [7]: < 0.001 nM
Kd [2]: < 0.001 nM
Kd [13]: 0.185 nM
Change in KD to t = 0 [15]: 185 fold
B9: Conjugate 19 (anti-VEGF VHH SEQ ID NO: 91 on hyaluronic acid, intermediate 2-6) (VHH)
VHH: B7 VHH
modifications: peptide bound through the organic linker MP2H to hyaluronic acid (830 kDa); site of attachment not stated
notes: Multivalent peptide-hyaluronic acid conjugate (MVP); peptide valency 108; Method 2 intermediate; also called BI VHH anti-VEGF MVP

Kd [7]: < 0.001 nM
Kd [2]: < 0.001 nM
Change in KD to t = 0 [8]: 1440 fold
Kd [19]: < 0.001 nM
Kd [14]: 1.44 nM
Change in KD to t = 0 [15]: 1 fold
B10: Conjugate 20 (anti-VEGF VHH SEQ ID NO: 91 on hyaluronic acid, intermediate 2-8) (VHH)
VHH: B7 VHH
modifications: peptide bound through the organic linker MP2H to hyaluronic acid (830 kDa); site of attachment not stated
notes: Multivalent peptide-hyaluronic acid conjugate (MVP); peptide valency 91; Method 2 intermediate; also called BI VHH anti-VEGF MVP
